Source: patent EP4814018A2 (F. Hoffmann-La Roche AG, dated 2026)

Legend:
[1] = molecular target: T1, cynomolgus transferrin receptor on stably transfected CHO cells (cynomolgus); test: FACS on cyTfR CHO cells
T1 construct: whole, on cells; also called Cyno TfR-CHO; cyTfR (FACS)

[2] = molecular target: T2, human transferrin receptor (human, UniProt P02786 89-760); test: BIAcore
T2 construct: also called huTfR; hTfR

[3] = molecular target: T3, cynomolgus transferrin receptor (cynomolgus, UniProt H9EXL1 89-760 (rhesus entry)); test: BIAcore
T3 construct: also called cyTfR; Cyno TfR
T3 sequence (chain, as listed by the source): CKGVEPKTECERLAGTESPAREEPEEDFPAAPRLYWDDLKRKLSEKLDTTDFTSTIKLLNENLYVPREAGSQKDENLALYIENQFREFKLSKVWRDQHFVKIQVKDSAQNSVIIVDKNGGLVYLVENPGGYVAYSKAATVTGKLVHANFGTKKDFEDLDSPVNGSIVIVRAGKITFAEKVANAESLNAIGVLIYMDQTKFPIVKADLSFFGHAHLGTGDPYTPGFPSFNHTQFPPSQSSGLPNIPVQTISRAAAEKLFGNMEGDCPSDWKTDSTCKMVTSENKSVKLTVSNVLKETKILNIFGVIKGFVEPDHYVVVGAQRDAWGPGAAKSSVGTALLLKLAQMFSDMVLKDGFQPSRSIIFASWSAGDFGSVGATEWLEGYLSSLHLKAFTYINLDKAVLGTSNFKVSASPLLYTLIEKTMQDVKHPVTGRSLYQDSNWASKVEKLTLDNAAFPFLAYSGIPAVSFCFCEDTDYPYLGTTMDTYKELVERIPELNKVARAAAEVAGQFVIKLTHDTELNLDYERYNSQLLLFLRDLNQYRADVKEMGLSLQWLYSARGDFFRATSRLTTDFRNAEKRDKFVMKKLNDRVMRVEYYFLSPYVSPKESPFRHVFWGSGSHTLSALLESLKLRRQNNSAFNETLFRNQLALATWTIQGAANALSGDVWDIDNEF

[4] = molecular target: T1, cynomolgus transferrin receptor on …; test: FACS, cyno against human TfR CHO cells
[5] = molecular target: T3, cynomolgus transferrin receptor; test: BIAcore T200, biotinylated TfR captured (Example 13), 25 °C
[6] = molecular target: T3, cynomolgus transferrin receptor; test: BIAcore B4000, biotinylated TfR captured (Example 14), 25 °C

T2 sequence (P02786 89-760 limits assumed): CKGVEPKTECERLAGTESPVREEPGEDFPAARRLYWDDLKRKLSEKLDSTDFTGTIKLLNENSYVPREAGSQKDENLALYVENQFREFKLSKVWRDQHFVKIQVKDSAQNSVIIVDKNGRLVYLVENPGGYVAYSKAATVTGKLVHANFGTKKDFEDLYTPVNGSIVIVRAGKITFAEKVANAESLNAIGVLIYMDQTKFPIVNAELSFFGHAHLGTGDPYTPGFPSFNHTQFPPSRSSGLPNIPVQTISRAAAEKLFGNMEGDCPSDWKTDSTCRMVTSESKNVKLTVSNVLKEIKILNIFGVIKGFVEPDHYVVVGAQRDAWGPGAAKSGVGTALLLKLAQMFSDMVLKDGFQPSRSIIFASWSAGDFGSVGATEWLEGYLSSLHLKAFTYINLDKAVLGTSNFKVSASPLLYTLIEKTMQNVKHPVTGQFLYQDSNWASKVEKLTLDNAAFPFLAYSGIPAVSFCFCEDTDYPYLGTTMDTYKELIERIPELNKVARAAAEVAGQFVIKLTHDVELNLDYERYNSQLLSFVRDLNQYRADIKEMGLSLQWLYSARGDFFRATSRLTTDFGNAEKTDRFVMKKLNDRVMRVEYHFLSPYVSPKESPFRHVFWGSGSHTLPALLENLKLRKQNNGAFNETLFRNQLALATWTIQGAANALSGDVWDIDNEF

EC50 [1]: 0.314 µg/mL
BIAcore t1/2 [2]: 19 min
BIAcore t1/2 [3]: 0.2 min
ratio EC50 Cyno/ human [4]: 3.3
ratio max Cyno/ human [4]: 0.6
Kd [5]: 136 nM
koff [5]: 0.0733 s⁻¹
kon [5]: 541000 M⁻¹ s⁻¹
koff [6]: 0.0778 s⁻¹
B1: murine anti-transferrin receptor antibody 128.1 (antibody, V domains shown)
VH: QVQLVQSGAEVKKPGASVKVSCKASGYTFTGYTMNWVRQAPGQGLEWMGRINPHNGGTDYAQKFQGRVTMTRDTSISTAYMELSRLRSDDTAVYYCARGYYYYSLDYWGQGTLVTVSS
VL: DIQMTQSPSSLSASVGDRVTITCRASSSIRYIHWYQQKPGKAPKRLIYDTSNLASGVPSRFSGSGSGTEFTLTISSLQPEDFATYYCHQRNSYPWTFGQGTRLEIK
